# T1: 호산구 유래 신경독(eosinophil-derived neurotoxin, EDN) (UniProt P10153 28-161)
# T1 construct: also called 항원 EDN
# T1 sequence (looked up): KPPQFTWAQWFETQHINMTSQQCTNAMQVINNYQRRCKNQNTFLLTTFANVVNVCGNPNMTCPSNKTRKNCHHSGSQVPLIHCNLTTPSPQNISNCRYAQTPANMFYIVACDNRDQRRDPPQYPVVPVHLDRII
# B1: 단일클론항체 Anti-6C5 (antibody, V domains shown)
# VH: EVQLQQPGPELVKPGASVKISCKASAYSFTDYIMLWVKQSHGKSLEWIGNIHPYYGSSSYNLKFKGKATLTVDKSSSTAYMQLNSLTSEDSAVYYCAREVGFGKGGFDYWGQGTTLTVSS
# VL: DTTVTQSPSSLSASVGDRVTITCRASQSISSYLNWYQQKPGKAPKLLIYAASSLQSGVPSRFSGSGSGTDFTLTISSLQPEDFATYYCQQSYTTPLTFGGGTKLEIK
# notes: Whole monoclonal antibody produced from hybridoma cell line 6C5 (culture supernatant); The heavy chain ran at 50 kDa on reducing SDS-PAGE; also called Anti-6C5(6C5)
# Biological target: T1, 호산구 유래 신경독(eosinophil-derived …)
# Experiment: BLI (Octet), AR2G amine-reactive biosensor, antibody immobilised, EDN as analyte at 12.5, 6.25, 3.13, 1.56 and 0.78 nM, 1X kinetic buffer
binder,measurement,value
B1,Kd,0.0576 nM

# From patent KR20210073785A (dated 2021)
